Test results from patent publication US9217036.

Biological target: full-length mouse PrP, cellular prion protein PrP^c (mouse) (UniProt P04925)
Sequence (P04925 23-230 limits assumed): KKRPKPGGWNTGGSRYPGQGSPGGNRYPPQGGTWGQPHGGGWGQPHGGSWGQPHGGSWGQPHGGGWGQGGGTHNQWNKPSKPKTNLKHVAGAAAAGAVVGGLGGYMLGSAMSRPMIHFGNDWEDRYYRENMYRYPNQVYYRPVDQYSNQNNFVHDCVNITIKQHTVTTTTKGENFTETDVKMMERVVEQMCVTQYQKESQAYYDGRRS

6D11 anti-PrP mouse monoclonal antibody
IC50: 1 nM
